Test [1] has as its target oxidized wheat protein disulfide isomerase (wPDI^O) (wheat) (UniProt P52589). Put plainly: ITC; MicroCal VP-ITC; 0.3 mM 1Dx5-NTD^AAA titrated into 70 uM wPDI, 27 additions of 10 uL; 0.5 mM GSSG in both buffers (oxidized wPDI); single-site binding model. Background: ITC needs no label: the signal is the heat of the interaction.
For test [2], the target named is reduced wheat protein disulfide isomerase (wPDI^R) (wheat) (UniProt P52589). The test is described as follows: ITC; MicroCal VP-ITC; 0.3 mM 1Dx5-NTD^AAA titrated into 70 uM wPDI, 27 additions of 10 uL; 1 mM DTT in both buffers (reduced wPDI); single-site binding model.

Experimental findings from PMC11376372 are described below.

For the substance “1Dx5-NTD^AAA, triple mutant of the N-terminal domain of HMW glutenin subunit 1Dx5 in which all three cysteines were mutated into alanine (domain or fragment)”, the Kd (as a rule, the concentration at which binding is half-saturated) in test [1] was 316 µM; in test [2], 2.59 µM.
